{
  "source": "patent US6060451A",
  "about": "“Thrombin inhibitors based on the amino acid sequence of hirudin” (The National Research Council of Canada, priority 1995, dated 2000)",
  "molecules": {"B1": {"name": "r-Hirudin: recombinant hirudin (HV-2), thrombin inhibitor protein of the leech Hirudo medicinalis (protein)", "chain": "ITYTDCTESGQNLCLCEGSNVCGKGNKCILGSNGKGNQCVTGEGTPNPESHNNGDFEEIPEEYLQ"}},
  "key": {"[1]": {"tested_on": "activated partial thromboplastin time", "test": "Increase in APTT, bolus plus infusion model", "type": "in vivo, rat", "set-up": "Infusion Dose needed to cause 2-4 fold increase in APTT: unit not given here", "details": "intravenous bolus followed by infusion"}, "[2]": {"tested_on": "carotid artery thrombosis", "test": "Ferric chloride injury-induced thrombosis model in carotid artery", "details": "rat carotid artery, FeCl3 injury; control patency time 19 ± 1 min", "experimental": "Species: Rat, male, Sprague-Dawley.\nAnimals were laid on a heating pad which was maintained at 37° C. The carotid artery was approached through a midline cervical incision. Carefully blunt dissection was used to expose and isolate the vessel from the carotid sheath. […] The vessel temperature was monitored for 60 minutes after application of FeCl3. […] The site of the experiment was covered with aluminum foil in order to protect the FeCl3 from degradation by light.\nAll the samples were kept on ice and centrifuged as soon as possible at 2000 Rpm for 10 min., 4° C. The plasma was analyzed in duplicate for activated partial thromboplastin time on a haemostasis analyzer (STAGO ST4™).\nFrom a group of four animals, two arteries were stored at -80° C. for further analysis. The others were observed under a light microscope at 40× (Leica™) for quantification of the occlusion (complete, partial, no occlusion).\nIn some studies, the animal was receiving the compound by i.v. infusion instead of a bolus. In this case, the jugulars and femoral veins were cannulated with Sylastic tubing (I.D. 0.025IN). This left jugular was used for blood sampling and the right one for the infusion line. The compound was infused 30 minutes before injury and then for an other 30 minutes post-injury. Blood samples were taken at time 0, 30 and 60 minutes for APTT test and thrombin test (1 ml of blood/90 ul of citrated buffer)."}, "[3]": {"tested_on": "arteriovenous shunt occlusion", "test": "Antithrombotic activity in the arteriovenous shunt model", "details": "rats, 5 min after intravenous administration"}},
  "data": [
    {"molecule": "B1", "values": [
      {"measurement": "Bolus Dose needed to cause 2-4 fold increase in APTT", "setting": "[1]", "value": 0.15, "unit": "mg/kg"},
      {"measurement": "Infusion Dose needed to cause 2-4 fold increase in APTT", "setting": "[1]", "value": 15},
      {"measurement": "Dose to double patency time", "setting": "[2]", "value": 1, "unit": "mg/kg"},
      {"measurement": "ED15 (dose which causes a prolongation of the time until occlusion of the shunt by 15 min)", "setting": "[3]", "value": 1.42, "unit": "mg/kg"}
    ]}
  ]
}
